In patent US8816053B2 (ZymoGenetics, Inc., priority 2004, dated 2014):

Columns and labels:
[1] = target: T1, zcyto20 (Homo sapiens, UniProt Q8IZJ0); assay: Inhibition of ligand-induced ISRE signaling by soluble receptors, 293 HEK cells overexpressing zcytor19, ligand zcyto20; type: cell-based; settings: all three ligands together; soluble receptor 10 micrograms/ml
T1 sequence (Q8IZJ0 26-200): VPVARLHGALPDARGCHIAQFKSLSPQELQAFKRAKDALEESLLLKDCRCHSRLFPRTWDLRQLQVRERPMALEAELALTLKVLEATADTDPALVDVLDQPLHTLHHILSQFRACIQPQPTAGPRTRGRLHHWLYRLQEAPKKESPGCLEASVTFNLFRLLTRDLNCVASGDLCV
Excerpt: A signal transduction reporter assay can be used to show the inhibitor properties of zcytor19-Fc4 homodimeric and zcytor19-Fc/CRF2-4-Fc heterodimeric soluble receptors on zcyto20, zcyto21 and zcyto24 signaling. Human embryonal kidney (HEK) cells overexpressing the zcytor19 receptor are transfected with a reporter plasmid containing an interferon-stimulated response element (ISRE) driving transcription of a luciferase reporter gene. Luciferase activity following stimulation of transfected cells with ligands (including zcyto20 (SEQ ID NO:18), zcyto21 (SEQ ID NO:20), zcyto24 (SEQ ID NO:8)) reflects the interaction of the ligand with soluble receptor.
The results obtained are shown as the percent inhibition of ligand-induced signaling in the presence of soluble receptor relative to the signaling in the presence of PBS alone.

[2] = test system: OAS activity; assay: OAS activity in serum and plasma of treated mice (OAS radioimmunoassay); type: in vivo, mouse; settings: i.v., 10 μg-250 μg
Procedure: Serum and plasma were isolated from mice at varying time points, and OAS activity was measured using the OAS radioimmunoassay (RIA) kit from Eiken Chemicals (Tokyo, Japan).

[3] = test system: adenoviral vector, AdGFP; assay: Adenoviral vector (AdGFP) liver pathology model in C57Bl/6 mice; settings: 50 μg i.p., 7 doses; H&E
[4] = test system: mouse OAS, Pkr and Mx1; assay: ISG gene induction in liver, spleen and blood of C57BL/6 mice injected with protein (real-time PCR); type: in vivo; settings: i.p. or i.v., 10 μg-250 μg, 1 hr-48 hr
Procedure: Mice were sacrificed at various time points (1 hr-48 hr). Spleens and livers were isolated from mice, and RNA was isolated. RNA was also isolated from the blood cells. The cells were pelleted and RNA isolated from pellets using RNAEasy®-kit (Qiagen). RNA was treated with DNase (Amicon) to rid RNA of any contaminating DNA. cDNA was generated using Perkin-Elmer RT mix (Perkin-Elmer). ISG gene induction was measured by real-time PCR using primers and probes specific for mouse OAS, Pkr and Mx1. To obtain quantitative data, HPRT real-time PCR was duplexed with ISG PCR. A standard curve was calculated using known amounts of IFN-stimulated mouse PBLs. All data are shown as expression relative to internal HPRT expression.
Results shown are fold expression relative to HPRT gene expression. […] The data shown is the average expression from 5 different animals/group.
Mice were injected with 100 μg of proteins i.v. Data shown is fold expression over HPRT expression from livers of mice. Similar data was obtained from blood and spleens of mice.

[5] = test system: mouse OAS, Pkr and Mx1 in AML-12 cells; assay: ISG induction in the mouse liver cell line AML-12 (real-time PCR); type: cell-based; settings: AML-12, 20 ng/ml, 48 hour time point
[6] = test system: Mouse B cells; assay: 3H-thymidine incorporation by mouse B cells; type: cell-based
Procedure: Mouse B cells were isolated from 2 Balb/C spleens (7 months old) by depleting CD43+ cells using MACS magnetic beads. Purified B cells were cultured in vitro with LPS, anti-IgM or anti-CD40 monoclonal antibodies. Mouse IL-28 or mouse IFNα was added to the cultures and ^3H-thymidine was added at 48 hrs. and ^3H-thymidine incorporation was measured after 72 hrs. culture.

| Molecule | inhibition of zcyto20, zcyto21 and zcyto24-induced signaling [1] | liver and inflammation scores (liver histology) versus the PBS-treated group [3] | ISG gene expression (OAS, Pkr, Mx1) in the livers, spleen and blood of mice [4] | also measured |
| --- | --- | --- | --- | --- |
| HuCRF2-4-Fc: human CRF2-4-Fc homodimeric soluble receptor | No significant effects |  |  |  |
| IL-29: human IL-29 cytokine polypeptide, previous designation zcyto21 (e.g. SEQ ID NO:20, CHO-derived) (protein, listed as Homo sapiens, SIGNAL (1)...(19)) MAAAWTVVLVTLVLGLAVAGPVPTSKPTTTGKGCHIGRFKSLSPQELASFKKARDALEESLKLKNWSCSSPVFPGNWDLRLLQVRERPVALEAELALTLKVLEAAAGPALEDVLDQPLHTLHHILSQLQACIQPQPTAGPRPRGRLHHWLHRLQEAPKKESAGCLEASVTFNLFRLLTRDLKYVADGNLCLRTSTHPEST |  | lower | induced | OAS activity in the serum and plasma of mice [2]: induced |
| Muzcytor19-Ig: murine zcytor19-Ig homodimeric soluble receptor (protein, left off: a dimerising Fc or GST, murine zcytor19-Ig homodimeric soluble receptor) RPRLAPPRNVTLFSQNFTVYLTWLPGLGSPPNVTYFVTYQSYIKTGWRPVEHCAGIKALVCPLMCLKKLNLYSKFKGRVQAASAHGRSPRVESRYLEYLFDVELAPPTLVLTQMEKILRVNATYQLPPCMPSLELKYQVEFWKEGLGSKTLFPDTPYGQPVQIPLQQGASRRHCLSARTVYTLIDIKYSQFSEPSCIFLEAPGDKRA | No significant effects |  |  |  |
| Zcyto24: mouse IL-28 (zcyto24), SEQ ID NO:8 (protein, listed as Mus musculus) MKPETAGGHMLLLLLPLLLAAVLTRTQADPVPRATRLPVEAKDCHIAQFKSLSPKELQAFKKAKDAIEKRLLEKDLRCSSHLFPRAWDLKQLQVQERPKALQAEVALTLKVWENMTDSALATILGQPLHTLSHIHSQLQTCTQLQATAEPRSPSRRLSRWLHRLQEAQSKETPGCLEASVTSNLFRLLTRDLKCVANGDQCV |  | lower |  | Mx1 (expression relative to HPRT) [5]: 0.08; OAS (expression relative to HPRT) [5]: 0.04; PkR (expression relative to HPRT) [5]: 0.02; 3H-thymidine incorporation ([6]; B cells stimulated with LPS or anti-IgM, IFNα 10 ng/ml, mouse IL-28 any concentration including 1000 ng/ml, 72 hrs): did not inhibit; 3H thymidine incorporation ([6]; B cells stimulated with anti-CD40 MAb): increased |
| IL-28A: human IL-28A cytokine polypeptide, previous designation zcyto20 (e.g. SEQ ID NO:18, CHO-derived) (protein, listed as Homo sapiens, SIGNAL (1)...(25)) MKLDMTGDCTPVLVLMAAVLTVTGAVPVARLHGALPDARGCHIAQFKSLSPQELQAFKRAKDALEESLLLKDCRCHSRLFPRTWDLRQLQVRERPMALEAELALTLKVLEATADTDPALVDVLDQPLHTLHHILSQFRACIQPQPTAGPRTRGRLHHWLYRLQEAPKKESPGCLEASVTFNLFRLLTRDLNCVASGDLCV |  |  | did not induce |  |
